{
  "source": "patent US7910100B2",
  "about": "“Antibodies directed to the mammalian EAG1 ion channel protein” (Max-Planck-Gesellschaft zur Forderung der Wissen, priority 2004, dated 2011)",
  "system": "IPC-298 melanoma cells",
  "test": "IPC-298 cell proliferation with secondary immunotoxin Mab-ZAP",
  "type": "cell-based, human",
  "settings": "in combination with secondary immunotoxin Mab-ZAP (100 ng/well), 72 hours",
  "description": "In order to evaluate the specific suitability and efficacy of anti-Eag1 monoclonal antibodies for conjugation as primary immunotoxin, in vitro cell proliferation assays were performed in the presence of anti-Eag1 antibody in conjunction with a secondary antibody conjugated to saporin, a ribosome-inactivating protein from the seeds of the plant Saponaria officinalis. The secondary immunotoxin binds to the anti-Eag1 antibody is internalized into the cell alongside the primary antibody. Once the immunotoxin is internalised, saporin breaks away from the targeting agent and inactivates the ribosomes, which causes protein inhibition and, ultimately, cell death.\nFor the assay (FIG. 8a) 3000 IPC-298 cells were seeded in 60 μl/well FCS-containing medium on 96-well plates overnight. 100 ng/well (1 ng/μl) Mab-ZAP was mixed with 10 ng/μl of mouse monoclonal anti-Eag1 antibodies ImAb1 or ImAb4 in 40 μl FCS-containing medium for 1 h at 37° C. and then directly added to the cells in quadruplicates. […] The quantity of formazan product was measured by the amount of 490 nm absorbance using an ELISA plate reader.\nFor the assay shown in FIG. 8b 3000 IPC-298 cells were seeded in 60 μl/well FCS-containing medium on 96-well plates overnight. […] Absorbance was measured using a spectrofluorometer at 590 nm every 30 min.",
  "data": [
    {"molecule": "ImAb4: mouse monoclonal anti-Eag1 antibody, IgG2b kappa; light chain SEQ ID NO: 2, heavy chain SEQ ID NO: 4 (antibody, listed as Mus musculus) heavy: MRVLILLWLFTAFPGILSDVQLQESGPGLVKPSQSLSLTCTVTGYSITSDYAWNWIRQFPGNKLEWMGYISYSGSTIYNPSLKSRISITRDTSKNQFFLQLNSVTTEDTATYYCARFGNYGNTLNYWGQGTSVTVSSAKTTPPSVYPLAPGCGDTTGSSVTLGCLVKGYFPESVTVTWNSGSLSSSVHTFPALLQSGLYTMSSSVTVPSSTWPSQTVTCSVAHPASSTTVDKKLEPSGPISTINPCPPCKECHKCPAPNLEGGPSVFIFPPNIKDVLMISLTPKVTCVVVDVSEDDPDVQISWFVNNVEVHTAQTQTHREDYNSTIRVVSTLPIQHQDWMSGKEFKCKVNNKDLPSPIERTISKIKGLVRAPQVYILPPPAEQLSRKDVSLTCLVVGFNPGDISVEWTSNGHTEENYKDTAPVLDSDGSYFIYSKLNMKTSKWEKTDSFSCNVRHEGLKNYYLKKTISRSPGK light: MKLPVRLLVLMFWIPASSSDVVMTQTPLSLPVSLGDQASISCRSSQSLVHSNGNTYLHWYLQKPGQSPKLLIYKVSNRFSGVPDRFSGSGSGTDFTLKISRVEAEDLGVYFCSQSTHVPPTFGGGTKLEIKRADAAPTVSIFPPSSEQLTSGGASVVCFLNNFYPKDINVKWKIDGSERQNGVLNSWTDQDSKDSTYSMSSTLTLTKDEYERHNSYTCEATHKTSTSPIVKSFNRNEC", "values": [
      {"measurement": "inhibition of cell proliferation", "result": "inhibition of IPC-298 melanoma cell proliferation"}
    ]}
  ]
}
